Measurements from patent US20160311918A1, “Anti-Ron Monoclonal Antibodies as a Cytotoxic Drug Delivery System for Targeted Cancer Therapy” (TEXAS TECH UNIVERSITY SYSTEM, priority 2013, published 2016).
Values joined by “and” are separate entries in the source; they are usually repeats but may differ in a detail not shown here. Equal entries are not always repeated.

Experiments:
HT29 cells = experiment: Cell viability assay, HT29; format: cell-based, human; settings: read-out: IC50 cell viability, free DM1
Method: (§1) Cell viability was determined by the MTS assay. […] Morphological changes were observed under the Olympus BK-41 inverted microscope and photographed. […] FIG. 3D: Cell death percentages were determined by the trypan blue exclusion method.
(§2) Cell viability and death assays: Cell viability 72 h after Zt/g4-DM1 treatment was determined by the MTT assay (22). Viable or dead cells were determined by the trypan blue exclusion assay. A total of 900 cells were counted from three individual wells to reach the percentages of dead cells.
(§3) The effect of Zt/g4-DM1 on cell viability was determined. […] The cells were treated with Zt/g4-DM1.

HCT116 cells = experiment: Cell viability assay, HCT116; format: cell-based, human; settings: read-out: IC50 cell viability, free DM1
Method: as §1, §2, §3

SW620 cells = experiment: Cell viability assay, SW620; format: cell-based, human; settings: read-out: IC50 cell viability, free DM1
Method: as §1, §2, §3

[1] = molecular target: T1, oncogenic RON variant RON160 (human, UniProt Q04912 25-1400, limits assumed); experiment: receptor binding studies; format not stated
T1 construct: also called RONΔ160

[2] = tested on: human RON and its oncogenic variants such as RON160; experiment: Zt/f2 receptor binding to human RON
Source text: (§4) This sequence is critical in regulating RON maturation and phosphorylation. […] These biochemical features provide the cellular basis for the use of Zt/f2 to inhibit tumor growth in animal model. Repeated administration of Zt/f2 as a single agent into Balb/c mice results in partial inhibition of tumor growth caused by transformed NIH-3T3 cells expressing oncogenic RON160. Colon cancer HT-29 cell-mediated tumor growth in athymic nude mice also was attenuated following Zt/f2 treatment. In both cases, ˜50% inhibition of tumor growth as measured by tumor volume was achieved. […] The present inventors conclude that Zt/f2 is a potential therapeutic mAb capable of inhibiting RON-mediated oncogenesis by colon cancer cells in animal models. The inhibitory effect of Zt/f2 in vivo in combination with chemoagent 5-fluorouracil could represent a novel strategy for future colon cancer therapy.

[3] = tested on: transformed NIH-3T3 cells expressing oncogenic RON160; experiment: Tumor growth by NIH-3T3 cells expressing RON160 in Balb/c mice; format: in vivo, mouse; settings: repeated administration, single agent
Source text: as §4

[4] = tested on: Colon cancer HT-29 cell-mediated tumor growth; experiment: HT-29 cell-mediated tumor growth in athymic nude mice (Zt/f2); format: in vivo, mouse
Source text: as §4

RON = RON (Homo sapiens, UniProt Q04912); experiment: Classification of anti-RON mAbs by activity upon binding to RON; format: cell-based
RON, sequence (Q04912 25-1400): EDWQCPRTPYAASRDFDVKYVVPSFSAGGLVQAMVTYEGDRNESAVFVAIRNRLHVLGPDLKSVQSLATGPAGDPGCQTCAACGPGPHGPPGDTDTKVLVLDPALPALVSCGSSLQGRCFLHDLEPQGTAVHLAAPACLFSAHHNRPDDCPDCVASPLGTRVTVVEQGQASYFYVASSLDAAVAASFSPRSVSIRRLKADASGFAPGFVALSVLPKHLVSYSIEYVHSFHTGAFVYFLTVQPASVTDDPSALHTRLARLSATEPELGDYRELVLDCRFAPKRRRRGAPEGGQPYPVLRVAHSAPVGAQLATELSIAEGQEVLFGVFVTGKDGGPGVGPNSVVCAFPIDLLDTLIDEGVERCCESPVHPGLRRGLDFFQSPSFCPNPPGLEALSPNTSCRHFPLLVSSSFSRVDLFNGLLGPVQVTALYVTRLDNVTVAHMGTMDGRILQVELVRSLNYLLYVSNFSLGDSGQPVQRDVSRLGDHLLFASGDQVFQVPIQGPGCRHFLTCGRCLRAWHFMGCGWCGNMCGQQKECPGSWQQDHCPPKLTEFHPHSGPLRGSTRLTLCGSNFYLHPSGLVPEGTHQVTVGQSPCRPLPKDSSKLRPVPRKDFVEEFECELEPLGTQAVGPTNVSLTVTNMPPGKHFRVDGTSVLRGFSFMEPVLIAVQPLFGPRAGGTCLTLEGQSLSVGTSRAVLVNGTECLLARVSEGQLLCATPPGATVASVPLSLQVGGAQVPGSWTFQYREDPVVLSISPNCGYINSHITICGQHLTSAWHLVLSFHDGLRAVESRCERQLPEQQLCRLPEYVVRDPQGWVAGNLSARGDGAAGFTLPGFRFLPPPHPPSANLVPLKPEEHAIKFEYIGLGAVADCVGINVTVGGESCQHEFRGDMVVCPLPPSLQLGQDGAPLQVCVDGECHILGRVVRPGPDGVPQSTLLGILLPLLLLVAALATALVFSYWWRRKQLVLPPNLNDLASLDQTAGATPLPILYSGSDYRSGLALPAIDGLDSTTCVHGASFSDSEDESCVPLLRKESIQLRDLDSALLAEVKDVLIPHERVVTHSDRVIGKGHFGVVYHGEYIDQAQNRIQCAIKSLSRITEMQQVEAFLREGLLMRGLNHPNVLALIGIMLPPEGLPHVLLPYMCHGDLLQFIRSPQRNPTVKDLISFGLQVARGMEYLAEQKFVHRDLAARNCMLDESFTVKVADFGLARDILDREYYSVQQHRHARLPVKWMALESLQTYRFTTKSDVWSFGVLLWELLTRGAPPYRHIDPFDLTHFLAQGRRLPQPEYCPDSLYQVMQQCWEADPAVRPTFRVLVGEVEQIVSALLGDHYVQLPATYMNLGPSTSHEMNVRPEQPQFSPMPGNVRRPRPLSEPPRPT
Source text: Using an advanced living cell immunization method, the present inventors were able to generate mAbs specific only to the RON extracellular domains. Using flow cytometer in conjunction with biological assays, the present inventors characterize our anti-RON mAbs for their specificity and sensitivity. […] This is based on direct binding, ELISA, IHC, Western blotting and other biochemical and biological assays. Moreover, based on their activities upon binding to RON, the present inventors were able to classify the anti-RON mAb into three categories. […] This type of anti-RON mAbs is considered as agnostic antibodies. The representatives are Zt/g4, Zt/c1, Zt/c9, Zt/f1, and Zt/H12. […] The typical examples are Zt/g9 and Zt/c8. […] One example is Zt/f2. The present inventors considered this type of mAb having therapeutic potentials.

[5] = molecular target: T2, human RON receptor tyrosine kinase (recepteur d'origine nantais) (human, UniProt Q04912 25-1400); experiment: cell-based or functional assay
[6] = molecular target: T2, human RON receptor tyrosine kinase …; experiment: cell-based or functional assay; remark: listed apart in the source
[7] = tested on: human pancreatic cancer cells; experiment: PDAC cell viability in combination with chemotherapeutics; format: cell-based
Method: In vitro cell viability and death assays: Cell viability after treatment of Zt/g4-DM1, chemotherapeutics, and their combinations was determined by the MTT assay. Cell death was determined by the trypan blue exclusion assay.
FIGS. 10A to 10D are graphs that show the effect of Zt/g4-DM1 on pancreatic cancer cell cycle, viability, and apoptotic death. […] FIG. 12 are graphs that show synergism between Zt/g4-DM1 and chemotherapeutics by isobolograms.

[8] = molecular target: T2, human RON receptor tyrosine kinase …; experiment: direct binding, ELISA, IHC, Western blotting, flow cytometry
mouse RON homologue = molecular target: T3, mouse RON homologue (Mus musculus, UniProt Q62190); settings: cited from earlier work
T3 sequence (Q62190 24-1378): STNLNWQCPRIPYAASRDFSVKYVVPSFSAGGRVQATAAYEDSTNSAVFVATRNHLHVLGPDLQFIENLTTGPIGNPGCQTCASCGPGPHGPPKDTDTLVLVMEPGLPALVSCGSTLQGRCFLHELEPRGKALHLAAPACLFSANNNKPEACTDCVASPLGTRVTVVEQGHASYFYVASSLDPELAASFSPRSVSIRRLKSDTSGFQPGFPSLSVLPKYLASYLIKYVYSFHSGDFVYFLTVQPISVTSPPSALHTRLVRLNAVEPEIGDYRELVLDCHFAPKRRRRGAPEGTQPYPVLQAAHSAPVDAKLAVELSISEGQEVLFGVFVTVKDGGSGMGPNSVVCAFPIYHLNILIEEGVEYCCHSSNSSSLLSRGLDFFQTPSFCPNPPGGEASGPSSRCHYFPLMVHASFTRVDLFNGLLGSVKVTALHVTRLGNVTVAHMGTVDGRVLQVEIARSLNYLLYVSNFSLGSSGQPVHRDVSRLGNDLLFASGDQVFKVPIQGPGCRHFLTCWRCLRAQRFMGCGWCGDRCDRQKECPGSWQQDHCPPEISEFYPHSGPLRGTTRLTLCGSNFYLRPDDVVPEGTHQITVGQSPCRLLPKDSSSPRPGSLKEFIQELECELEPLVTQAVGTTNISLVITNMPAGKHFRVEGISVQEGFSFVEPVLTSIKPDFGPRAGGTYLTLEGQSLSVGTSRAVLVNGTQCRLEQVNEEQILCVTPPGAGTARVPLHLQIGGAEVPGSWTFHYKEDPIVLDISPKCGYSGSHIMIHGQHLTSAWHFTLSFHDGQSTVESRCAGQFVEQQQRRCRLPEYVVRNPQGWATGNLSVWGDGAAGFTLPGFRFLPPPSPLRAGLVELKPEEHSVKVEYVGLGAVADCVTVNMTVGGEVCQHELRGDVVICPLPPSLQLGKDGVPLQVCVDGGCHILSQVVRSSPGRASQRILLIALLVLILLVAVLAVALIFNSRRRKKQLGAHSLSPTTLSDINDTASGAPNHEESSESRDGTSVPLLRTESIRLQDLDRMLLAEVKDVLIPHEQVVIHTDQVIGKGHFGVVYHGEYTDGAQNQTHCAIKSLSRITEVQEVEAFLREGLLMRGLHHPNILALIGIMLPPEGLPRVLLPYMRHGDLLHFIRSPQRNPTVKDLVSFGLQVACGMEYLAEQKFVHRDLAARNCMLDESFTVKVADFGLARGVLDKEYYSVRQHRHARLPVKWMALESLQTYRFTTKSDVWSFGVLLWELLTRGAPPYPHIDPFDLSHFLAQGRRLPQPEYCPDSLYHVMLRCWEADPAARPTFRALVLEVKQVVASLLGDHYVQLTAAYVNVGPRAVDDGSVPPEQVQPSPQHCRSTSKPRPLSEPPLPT

cell surface RON = cell surface RON (Homo sapiens, UniProt Q04912); experiment: Antibody-induced RON endocytosis in cancerous cells; format: cell-based; design: cause rapid and significant amount of cell surface RON internalization in cancerous cells; endogenous in cells
cell surface RON, sequence (Q04912 25-1400): as the sequence (Q04912 25-1400) above
Source text: During characterization of anti-RON mAbs, the present inventors discovered that agonistic anti-RON mAb such as Zt/g4 and Zt/c1 binds to RON and cause rapid and significant amount of cell surface RON internalization in cancerous cells (a process known as antibody-induced receptor endocytosis). […] Fab fragments that fail to cause RON activation cannot induce RON endocytosis. In light of these findings, the present inventors conclude that anti-RON mAb-induced RON endocytosis can be used as a pharmaceutical means for targeted drug delivery.

COc1cc2cc(c1Cl)N(C)C(=O)C[C@H](OC(=O)[C@H](C)N(C)C(=O)CCS)[C@]1(C)O[C@H]1[C@H](C)[C@@H]1C[C@@](O)(NC(=O)O1)[C@H](OC)/C=C/C=C(\C)C2 [DM1, Maytansinoid (DM1)]
IC50 (HT29 cells): 4.4 nM
IC50 (HCT116 cells): 4.1 nM
IC50 (SW620 cells): 3.2 nM

B1: mouse monoclonal antibody Zt/f2 specific to human RON (antibody, V domains shown)
VH: QVQLQQSGAELAKPGASVKMSCKASGYTFTSYWMHWVKQRPGQGLEWIGYINPSTGYIEYNQNFKDKATLTADKSSSTAYMQLSSLTSEDSAVYYCARSPSHYYGSRYGYFDVWGAGTTVTVSS
VL: QIVLSQSPAILSASPGEKVTMTCRASSSVSYMHWYQQKPGSSPKPWIYATSNLASGVPARFSGSGSGTSYSLTISRVEAEDAATYYCQQWSSNPRTFGGGTKLEIK
notes: Mouse IgG2a; also called anti-RON mAb Zt/f2
EC50 [1]: 2.3 nM

B2: Zt/f2: mouse IgG2a mAb specific to human RON and its oncogenic variants such as RON160 (antibody, V domains shown)
VH: B1 VH
VL: B1 VL
competition with ligand macrophage-stimulating protein for binding to RON [2]: did not compete
inhibition of tumor growth as measured by tumor volume [3]: ~50%
inhibition effect on HT-29 cell-mediated tumor growth ([4]; in combination with 5-fluorouracil): ~80%
inhibition of tumor growth as measured by tumor volume ([4]; single agent, athymic nude mice): ~50%
activity upon binding to RON (RON): inhibit RON activation and signaling

B3: anti-RON antibody Zt/g4-maytansinoid (DM1) conjugate Zt/g4-DM1 (antibody, V domains shown)
VH: EVQLQQSGAELVKPGASVKLSCTTSGFNIIDTYIHWVNQKPDQGLEWIGRIDPADGNRKSDPKFQVKATITVDTSSNTAYLQLSSLTSGDTAVYYCARGYGNLNAMDSWGQGTSVTVSS
VL: DIQMNQSPSSLSASLGDTITITCHASQNINVWLNWYQQKPGNIPKLLIYKASNLHTGVPSRFSGSGSGTGFTLTISSLQPEDIATYYCQQGQSYPLTFGGGTKLEIK
modifications: DM1 conjugated by non-reducible thioether linkage (SMCC) through lysine residues in the antibody molecule; sites not stated; DM1 conjugated by non-reducible thioether linkage (SMCC) through lysine residues in the antibody molecule; average DAR 3.724; sites not stated
IC50 of cell death at 72 h, three CRC cell lines [5]: 5 to 7 µg/mL
IC50 of cell viability at 72 h, HCT116 cells [5]: 2.16 µg/mL
IC50 of cell viability at 72 h, HT29 cells [5]: 1.64 µg/mL
IC50 of cell viability at 72 h, SW620 cells [5]: 4.03 µg/mL
IC50 of cell viability, DLD1 cells [5]: 20.4 µg/mL
average IC50 value in causing cell death, three PDAC cell lines (L3.6pl, BxPC-3, FG) [5]: 3.13 µg/mL
IC50 value, cytotoxic effect on HT-29 cells [6]: 1.25 µg/mL and 8.32 nM

B4: Zt/g4-MMAE: Zt/g4 conjugated to monomethyl auristatin E (MMAE) (conjugate)
VH: B3 VH
VL: B3 VL
combination effect on viability of human pancreatic cancer cells ([7]; in combination with Gemcitabine): synergistic activity
combination effect on viability of human pancreatic cancer cells ([7]; in combination with Oxaliplatin): synergistic activity

B5: mouse anti-RON monoclonal antibody Zt/g4 (antibody, V domains shown)
VH: B3 VH
VL: B3 VL
notes: Mouse IgG1a/kappa from hybridoma; The leader is not part of the antibody as tested; also called free Zt/g4; anti-RON mAb Zt/g4
binding result [8]: binds

B6: Zt/g4: mouse monoclonal antibody (IgG1α/κ) highly specific to human RON, recognizes the RON sema domain (antibody, V domains shown)
VH: B3 VH
VL: B3 VL
activity upon binding to RON (RON): cause transient RON phosphorylation
species recognition of RON (mouse RON homologue): only recognizes human RON but not mouse RON homologue
absence of RON expression in cancerous cells in culture (cell surface RON; after endocytosis): up to 72 h
cell surface RON internalization (cell surface RON; within 24 h, 10 μg/ml/1×10^6 cancer cells): almost all cell surface RON is internalized

B7: Zt/g4-MMAE (antibody, V domains shown)
VH: B3 VH
VL: B3 VL
modifications: monomethyl auristatin E (MMAE) conjugated; average drug to antibody ratio 3.8:1; sites not stated
average IC50 value in causing cell death, three PDAC cell lines (L3.6pl, BxPC-3, FG) [5]: 5.16 µg/mL
